Results: article PMC12249575

Target: EcSofic H194A mutant (Sofic from Escherichia coli H397) (Escherichia coli H397)
Assay: AUC; sedimentation velocity, 50,000 rpm, 12 °C; samples 0.8 mg/mL in 20 mM Tris-HCl pH 7.5, 100 mM NaCl, 1 mM DTT; SEDFIT

For “EcSofic H194A mutant (Sofic from Escherichia coli H397) (enzyme)”, the stoichiometry N was 2.
